Data on two molecules can be found in PMC5549770, “Human cytomegalovirus IE1 downregulates Hes1 in neural progenitor cells as a potential E3 ubiquitin ligase” (PLoS Pathogens, 2017).

Experiment [1] addresses T1, His-IE1 (pET-IE1) (human cytomegalovirus (Towne strain), UniProt P03169 1-491).
T1 construct: HCMV IE1 (UL123), wild type, cloned into pET28a; 491 amino acids (Towne); also called purified IE1; source: E. coli BL21, purified (cOmplete His-Tag Purification Resin); not shown: His6, N-terminal, kept
T1 sequence: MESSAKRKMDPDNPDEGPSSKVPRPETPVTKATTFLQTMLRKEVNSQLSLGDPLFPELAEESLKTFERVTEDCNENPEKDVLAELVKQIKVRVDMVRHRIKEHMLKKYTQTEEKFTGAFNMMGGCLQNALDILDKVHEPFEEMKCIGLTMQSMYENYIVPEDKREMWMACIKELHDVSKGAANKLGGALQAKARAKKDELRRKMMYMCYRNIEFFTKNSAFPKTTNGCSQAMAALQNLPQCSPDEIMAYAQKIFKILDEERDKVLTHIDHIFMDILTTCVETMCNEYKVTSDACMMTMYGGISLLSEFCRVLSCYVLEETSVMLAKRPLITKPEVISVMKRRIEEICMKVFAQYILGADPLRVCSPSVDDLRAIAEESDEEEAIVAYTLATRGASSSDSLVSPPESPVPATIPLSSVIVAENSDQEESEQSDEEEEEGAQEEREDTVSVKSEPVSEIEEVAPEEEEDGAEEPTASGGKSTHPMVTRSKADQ
The experiment is described as follows: pull-down; purified His-Sp100A mixed with Ubc5a in the presence of purified His-IE1; Sp100A- or Ubc5a-directed IP, IB; Buffer A, 4°C. To be noted: both partners purified.

Experiment [2] has as its target T1, His-IE1 (pET-IE1). The experiment is described as follows: pull-down; in vitro pull-down: 1μg of each purified His-tagged protein (His-IE1 or His-Δ451–475 with His-Hes1) mixed in 300μl Buffer A (50mM NaH2PO4, 300mM NaCl, pH 8.0), antibody overnight at 4°C, protein A+G agarose. The conditions noted are these: both partners purified.

B1: His-Sp100A (pET-Sp100A) (natural protein)
chain: not shown
notes: human Sp100A (isoform A of the nuclear autoantigen Sp-100) cloned into pET28a; also called purified Sp100A; source: E. coli BL21, purified (cOmplete His-Tag Purification Resin); not shown: His6, N-terminal, kept
As for B1, in experiment [1], the binding result was “binds”.

B2: His-Hes1 (pET-Hes1) (natural protein, human, UniProt Q14469 1-280, looked up)
chain: MPADIMEKNSSSPVAATPASVNTTPDKPKTASEHRKSSKPIMEKRRRARINESLSQLKTLILDALKKDSSRHSKLEKADILEMTVKHLRNLQRAQMTAALSTDPSVLGKYRAGFSECMNEVTRFLSTCEGVNTEVRTRLLGHLANCMTQINAMTYPGQPHPALQAPPPPPPGPGGPQHAPFAPPPPLVPIPGGAAPPPGGAPCKLGSQAGEAAKVFGGFQVVPAPDGQFAFLIPNGAFAHSGPVIPVYTSNSGTSVGPNAVSPSSGPSLTADSMWRPWRN
notes: human Hes1 cloned into pET28a; also called purified Hes1; source: E. coli BL21, purified (cOmplete His-Tag Purification Resin); not shown: His6, N-terminal, kept
Consider B2, for which the binding result in experiment [2] is on record as “binds”.
